# From US12564623B2, “Methods and compositions for treating cancer” (The University of Chicago, priority 2017, dated 2026)
# Entries after “also recorded” stand apart in the source; their conditions may differ.
# Experiments:
# [1] = Side effects in healthy non-tumor-bearing mice; assay type: in vivo, C57BL/6 mice; conditions: mammary fat pad, once a day for 5 consecutive days
# Experimental: Human serum albumin (HSA; 11.6 μg)) or ELANE (11.6 μg) was injected into the mammary fat pad of healthy non-tumor-bearing C57BL/6 mice once a day for 5 consecutive days, and side effects were monitored. (a) Immunohistochemistry staining for apoptosis markers (TUNEL, cleaved CASP3 (c-CASP3), cleaved PARP (c-PARP)) 2 days after the final injection. (b) Delta body weight. (c) Spleen weight. (c) Blood ALT activity levels (a marker of liver function).
# 4 μM human albumin (Ctrl) or 4 μM ELANE was injected into the mammary fat pad of healthy non-tumor-bearing C57BL/6 mice once a day for 5 consecutive days, and side effects were monitored. Body weight, spleen weight, and blood ALT activity levels (a marker of liver function). Immunohistochemistry staining for apoptosis markers (cleaved CASP3 (c-CASP3), cleaved PARP (c-PARP)) 2 days after the final injection. Quantification of CD8+ effector cytotoxic T-cells (defined as CD3^+CD8^+CD62L^LOCD44^HI) in the blood 2 days after the final injection.
# [2] = system: human blood Tcells; test: Apoptosis of human blood T cells in vitro; assay type: cell-based
# Experimental: The efficiency by which these proteases cleaved CD95 was well correlated with their ability to kill cancer cells. Thus, targeting CD95 for degradation offers three important advantages over the FASL and siRNA/shRNA approaches described above. First, unlike the resistance reported with FASL, the inventors have shown that cancer cells are incapable of becoming resistant to this degradative pathway in vitro and in vivo. […] In fact, when tumor bearing mice were treated with ELANE, tumor and splenic T-cells numbers were elevated.
# [3] = system: Human or murine cancer cells; test: Cancer cell viability and apoptosis (Calcein AM, Caspase 3/7, Annexin V); assay type: cell-based; conditions: 50 nM; 24 hrs viability, 6 hrs apoptosis
# Experimental: Human PMN'S broadly and selectively kill cancer cells. Human peripheral blood neutrophils (PMN) were isolated from healthy donors and incubated in serum-free DMEM to collect their secreted factors (PMN-media). (A-B) Human or murine cancer cells (A) or healthy cells (b) were incubated with PMN media or control serum-free DMEM (Ctrl media) for 24 hours. Cell viability was assessed by Calcein AM staining. (C) Human or murine cancer cells were treated with PMN media or Ctrl media for 6 hours. Caspase 3/7 activity was examined by a luminescence activity assay, while cell surface Annexin V staining was assessed by flow cytometry. […] (FIG. 1).
# (FIG. 6A) Cancer cells or healthy cells were treated with 50 nM purified native ELANE or control DMEM media (Ctrl) media for 24 hrs, and cell viability was assessed by Calcein AM staining. (FIG. 6B) Cancer cells were treated with 50 nM ELANE or Ctrl media for 6 hrs, and apoptosis was assessed by Caspase 3/7 luminesce activity assay or cell surface Annexin V staining by flow cytometry. *, p<0.05, Student's t-test.
# [4] = system: tumors; test: Tumor apoptosis markers and CD95 staining after intratumoral delivery; assay type: in vivo, mice
# Experimental: (FIG. 16A) MDA-MB-231, A549, or MEL888 (xenograft model) cells were injected into athymic nude mice; M1 or 4195 tumors (TNBC PDX models) were propagated in SCID mice; and E0771, LLC1, or B16F10 cells (syngeneic models) were injected into C57BL/6 mice. Once tumors reached ˜100 mm^3, ELANE (11.6 μg), or PMSF-ELANE (11.6 μg) were delivered intratumorally once/day for 5 days. Tumors were isolated on day 6, formalin fixed, and examined by immunohistochemistry or immunofluorescence staining for TUNEL, cleaved-PARP (cPARP), and cleaved CASP3 (cCASP3). Images were taken under 40×. (FIG. 16B) Tumor sections were stained with N-terminal (N-CD95) and C-terminal (C-CD95) specific anti-CD95 antibodies, followed by secondary antibody staining (Alex fluor 488 and 594 for C-CD95 and N-CD95 respectively). Fluorescence intensity quantification was performed on 3-4 areas/mouse.
molecule,measurement,setting,value
"neutrophil elastase (protein, listed as Homo sapiens, purified native ELANE) MTLGRRLACLFLACVLPALLLGGTALASEIVGGRRARPHAWPFMVSLQLRGGHFCGATLIAPNFVMSAAHCVANVNVRAVRVVLGAHNLSRREPTRQVFAVQRIFENGYDPVNLLNDIVILQLNGSATINANVQVAQLPAQGRRLGNGVQCLAMGWGLLGRNRGIASVLQELNVTVVTSLCRRSNVCTLVRGRQAGVCFGDSGSPLVCNGLIHGIASFVRGGCASGLYPDAFAPVAQFVNWIDSIIQRSEDNPCPHPRDPDPASRTH","side effects (body weight, spleen weight, blood ALT, apoptosis markers)",[1],does not produce evident side-effects
same,apoptosis of human blood T cells,[2],did not induce apoptosis in vitro
same,cancer cell killing and apoptosis,[3],selectively kill cancer cells by inducing apoptosis
same,C-CD95 levels in tumors,"[4]; 11.6 μg intratumorally once/day for 5 days, day 6",attenuates C-CD95 levels in vivo
same,apoptosis in tumors,"[4]; intratumoral delivery, mouse cancer models",induces cancer cell apoptosis; also recorded: induced widespread apoptosis
